Legend:
[1] = target: recombinant HLA-B*15:01 (heavy chain with human β2-microglobulin light chain) (human)
[2] = target: recombinant HLA-A*01:01 (heavy chain with human β2-microglobulin light chain) (human)

| Binder | melting temperature (Tm) of the purified p/MHC complex, differential scanning fluorimetry [1] | thermal stability (Tm) of the purified p/MHC complex, differential scanning fluorimetry [2] |
| --- | --- | --- |
| AQDIYRASY [ALK R1275Q-derived nonamer neoepitope (…)] | 53.4 °C | 46.7 °C |
| AQDIYRASYY [ALK R1275Q-derived decamer neoepitope (…)] | 59.3 °C | 47.9 °C |
